Measurements taken from patent US20130217616.

Assays:
[1] = target: recombinant, full-length, non-tagged mannose-binding lectin (rMBL), P11226
[2] = target: recombinant human Ficolin-3 (rFicolin-3), O75636
Chain of recombinant human Ficolin-3 (rFicolin-3), O75636 (O75636 24-299): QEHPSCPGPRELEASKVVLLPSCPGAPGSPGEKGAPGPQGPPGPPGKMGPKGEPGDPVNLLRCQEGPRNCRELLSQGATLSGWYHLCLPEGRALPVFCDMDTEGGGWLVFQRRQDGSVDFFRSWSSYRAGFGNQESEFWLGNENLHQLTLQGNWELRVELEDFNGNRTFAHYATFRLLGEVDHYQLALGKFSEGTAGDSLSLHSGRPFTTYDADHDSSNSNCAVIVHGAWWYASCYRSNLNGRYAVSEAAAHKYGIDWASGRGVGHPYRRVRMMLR

Chain of recombinant, full-length, non-tagged mannose-binding lectin (rMBL), P11226 (P11226 21-248): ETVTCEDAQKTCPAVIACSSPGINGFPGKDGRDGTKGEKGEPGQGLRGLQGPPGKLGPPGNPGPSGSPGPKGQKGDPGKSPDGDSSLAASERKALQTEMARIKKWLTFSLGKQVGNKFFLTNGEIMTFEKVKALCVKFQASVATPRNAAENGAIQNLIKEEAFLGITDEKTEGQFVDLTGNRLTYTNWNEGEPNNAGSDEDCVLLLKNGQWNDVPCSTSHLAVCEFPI

Protein	activation of C3 and C4 [1]	C4 deposition (AcBSA/rFicolin-3, Ficolin-3 deficient serum) [2]	C4 deposition (mannan/rMBL, MBL deficient serum) [1]
recombinant human MBL-Associated Serine Protease-1 (rMASP-1) (protein) HTVELNNMFGQIQSPGYPDSYPSDSEVTWNITVPDGFRIKLYFMHFNLESSYLCEYDYVKVETEDQVLATFCGRETTDTEQTPGQEVVLSPGSFMSITFRSDFSNEERFTGFDAHYMAVDVDECKEREDEELSCDHYCHNYIGGYYCSCRFGYILHTDNRTCRVECSDNLFTQRTGVITSPDFPNPYPKSSECLYTIELEEGFMVNLQFEDIFDIEDHPEVPCPYDYIKIKVGPKVLGPFCGEKAPEPISTQSHSVLILFHSDNSGENRGWRLSYRAAGNECPELQPPVHGKIEPSQAKYFFKDQVLVSCDTGYKVLKDNVEMDTFQIECLKDGTWSNKIPTCKIVDCRAPGELEHGLITFSTRNNLTTYKSEIKYSCQEPYYKMLNNNTGIYTCSAQGVWMNKVLGRSLPTCLPVCGLPKFSRKLMARIFNGRPAQKGTTPWIAMLSHLNGQPFCGGSLLGSSWIVTAAHCLHQSLDPEDPTLRDSDLLSPSDFKIILGKHWRLRSDENEQHLGVKHTTLHPQYDPNTFENDVALVELLESPVLNAFVMPICLPEGPQQEGAMVIVSGWGKQFLQRFPETLMEIEIPIVDHSTCQKAYAPLKKKVTRDMICAGEKEGGKDACAGDSGGPMVTLNRERGQWYLVGTVSWGDDCGKKDRYGVYSYIHHNKDWIQRVTGVRN	MASP-1 were able to activate both the C3 and C4 complement proteins	–	–
recombinant human MBL-Associated Serine Protease-3 (rMASP-3) (protein) HTVELNNMFGQIQSPGYPDSYPSDSEVTWNITVPDGFRIKLYFMHFNLESSYLCEYDYVKVETEDQVLATFCGRETTDTEQTPGQEVVLSPGSFMSITFRSDFSNEERFTGFDAHYMAVDVDECKEREDEELSCDHYCHNYIGGYYCSCRFGYILHTDNRTCRVECSDNLFTQRTGVITSPDFPNPYPKSSECLYTIELEEGFMVNLQFEDIFDIEDHPEVPCPYDYIKIKVGPKVLGPFCGEKAPEPISTQSHSVLILFHSDNSGENRGWRLSYRAAGNECPELQPPVHGKIEPSQAKYFFKDQVLVSCDTGYKVLKDNVEMDTFQIECLKDGTWSNKIPTCKIVDCRAPGELEHGLITFSTRNNLTTYKSEIKYSCQEPYYKMLNNNTGIYTCSAQGVWMNKVLGRSLPTCLPECGQPSRSLPSLVKRIIGGRNAEPGLFPWQALIVVEDTSRVPNDKWFGSGALLSASWILTAAHVLRSQRRDTTVIPVSKEHVTVYLGLHDVRDKSGAVNSSAARVVLHPDFNIQNYNHDIALVQLQEPVPLGPHVMPVCLPRLEPEGPAPHMLGLVAGWGISNPNVTVDEIISSGTRTLSDVLQYVKLPVVPHAECKTSYESRSGNYSVTENMFCAGYYEGGKDTCLGDSGGAFVIFDDLSQRWVVQGLVSWGGPEECGSKQVYGVYTKVSNYVDWVWEQMGLPQSVVEPQVER	MASP-3 were able to inhibit the activation of both the C3 and C4 complement proteins	–	–
recombinant human MBL-Associated Serine Protease-2 (rMASP-2) (protein) TPLGPKWPEPVFGRLASPGFPGEYANDQERRWTLTAPPGYRLRLYFTHFDLELSHLCEYDFVKLSSGAKVLATLCGQESTDTERAPGKDTFYSLGSSLDITFRSDYSNEKPFTGFEAFYAAEDIDECQVAPGEAPTCDHHCHNHLGGFYCSCRAGYVLHRNKRTCSALCSGQVFTQRSGELSSPEYPRPYPKLSSCTYSISLEEGFSVILDFVESFDVETHPETLCPYDFLKIQTDREEHGPFCGKTLPHRIETKSNTVTITFVTDESGDHTGWKIHYTSTAQPCPYPMAPPNGHVSPVQAKYILKDSFSIFCETGYELLQGHLPLKSFTAVCQKDGSWDRPMPACSIVDCGPPDDLPSGRVEYITGPGVTTYKAVIQYSCEETFYTMKVNDGKYVCEADGFWTSSKGEKSLPVCEPVCGLSARTTGGRIYGGQKAKPGDFPWQVLILGGTTAAGALLYDNWVLTAAHAVYEQKHDASALDIRMGTLKRLSPHYTQAWSEAVFIHEGYTHDAGFDNDIALIKLNNKVVINSNITPICLPRKEAESFMRTDDIGTASGWGLTQRGFLARNLMYVDIPIVDHQKCTAAYEKPPYPRGSVTANMLCAGLESGGKDSCRGDSGGALVFLDSETERWFVGGIVSWGSMNCGEAGQYGVYTKVINYIPWIENIISDF	MASP-2 were able to strongly activate both the C3 and C4 complement proteins	Application of rMASP-2 resulted in a strong positive dose dependent enhancement of the C4 deposition via both the Ficolin-3 and MBL activation pathways	Application of rMASP-2 resulted in a strong positive dose dependent enhancement of the C4 deposition via both the Ficolin-3 and MBL activation pathways
